Results as given in patent US20250250355A1 (BIOSION, published 2025).
Where two headings read alike, the source gives them in different places.

Key:
[1] = biological target: T1, human SIRPα-V8-his protein (human, UniProt P78324 31-370, limits assumed); test: indirect ELISA on coated human SIRPα-V8-his, OD(450-630)
[2] = biological target: T2, full length human SIRPα on cell membranes (HEK293-SIRPα cells; 293F-SIRPα cells) (human, UniProt P78324 31-504); test: cell based blocking FACS on 293F-SIRPα cells; blocked ligand: human CD47 protein (CD47-Fc), MFI
T2 construct: whole, on cells; also called cell surface human SIRPα; cell surface SIRPα

[3] = biological target: T3, recombinant human SIRPα-Fc protein (human, biotin-labeled (sites not given)); test: capture ELISA, antibody captured on anti-mouse IgG F(ab')2, biotin-labeled human SIRPα-Fc in solution, OD(450-630)
T3 construct: also called biotin-labeled human SIRPα-Fc protein

[4] = biological target: T4, full length human SIRPγ endogenously expressed on Jurkat cells (human, UniProt Q9P1W8 29-387); test: cell based binding FACS on Jurkat cells (endogenous human SIRPγ), MFI; plateau at MFI about 325
T4 construct: whole, on cells; also called human SIRPγ expressed on Jurkat cells

[5] = biological target: T5, human SIRPα protein (soluble, used on 293F-CD47 cells) (human, UniProt P78324 31-370, limits assumed); test: cell based blocking FACS on 293F-CD47 cells; soluble human SIRPα protein blocked from binding cell surface human CD47, MFI
[6] = biological target: T6, full length human SIRPβ on cell membranes (HEK293-SIRPβ cells; 293F cells expressing human SIRPβ) (human, UniProt O00241 30-398); test: cell based binding FACS on 293F cells expressing human SIRPβ, MFI
T6 construct: whole, on cells; also called cell surface human SIRPβ

[7] = biological target: T6, full length human SIRPβ on cell …; test: cell based binding FACS on HEK293-SIRPβ cells, MFI; curve not visible in the scan
[8] = biological target: human SIRPα-his protein (human, UniProt P78324 31-370); test: competitive ELISA on coated human SIRPα-his; blocked ligand: biotin-labeled human CD47-his, OD(450-630)
[9] = biological target: T4, full length human SIRPγ endogenously …; test: cell based binding FACS on Jurkat cells (endogenous human SIRPγ), MFI; curve not visible in the scan
[10] = biological target: T1, human SIRPα-V8-his protein; test: indirect ELISA on coated human SIRPα-V8-his, OD(450-630); curve not visible in the scan
[11] = biological target: T2, full length human SIRPα on cell …; test: cell based blocking FACS on 293F-SIRPα cells; blocked ligand: human CD47 protein (CD47-Fc), MFI; remark: listed apart in the source
[12] = biological target: T2, full length human SIRPα on cell …; test: cell based binding FACS on 293F cells expressing human SIRPα, MFI
[13] = biological target: T5, human SIRPα protein (soluble, used on …); test: cell based blocking FACS on 293F-CD47 cells; soluble human SIRPα protein blocked from binding cell surface human CD47, MFI; remark: listed apart in the source
[14] = biological target: T2, full length human SIRPα on cell …; test: cell based binding FACS on 293F cells expressing human SIRPα, MFI; remark: listed apart in the source
[15] = biological target: human SIRPα-isoform 2-his protein (human); test: indirect ELISA on coated human SIRPα-isoform 2-his, OD(450-630)
[16] = biological target: T6, full length human SIRPβ on cell …; test: cell based binding FACS on 293F cells expressing human SIRPβ, MFI; remark: listed apart in the source
[17] = biological target: T2, full length human SIRPα on cell …; test: cell based binding FACS on HEK293-SIRPα cells, MFI; curve not visible in the scan
[18] = biological target: human SIRPα-isoform 2-his protein (human); test: indirect ELISA on coated human SIRPα-isoform 2-his, OD(450-630); remark: listed apart in the source
[19] = biological target: T4, full length human SIRPγ endogenously …; test: cell based binding FACS on Jurkat cells (endogenous human SIRPγ), MFI; plateau at MFI about 330
[20] = biological target: T7, mouse SIRPα-his (mouse, UniProt P97797 35-363, limits assumed); test: indirect ELISA on coated mouse SIRPα-his, OD(450-630)
T7 chain: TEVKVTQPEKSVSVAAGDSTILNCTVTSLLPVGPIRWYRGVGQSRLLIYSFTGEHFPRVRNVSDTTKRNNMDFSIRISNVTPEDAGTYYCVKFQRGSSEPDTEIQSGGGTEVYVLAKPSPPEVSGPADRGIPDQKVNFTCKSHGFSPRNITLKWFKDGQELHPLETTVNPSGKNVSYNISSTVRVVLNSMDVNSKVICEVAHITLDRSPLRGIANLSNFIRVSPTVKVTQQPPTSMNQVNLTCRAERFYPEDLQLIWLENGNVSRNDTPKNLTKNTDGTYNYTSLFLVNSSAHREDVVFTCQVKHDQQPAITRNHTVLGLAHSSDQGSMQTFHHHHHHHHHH

[21] = biological target: human SIRPα-isoform 2-his protein (human); test: indirect ELISA on coated human SIRPα-isoform 2-his, OD(450-630); plateau at OD about 1.0

EC50 [1]: 255 pM
IC50 [2]: 730 pM
EC50 [3]: 77.4 pM
EC50 [4]: 7.61 pM
IC50 [5]: 241 pM
EC50 [6]: 164 pM
EC50 [7]: 272 pM
IC50 [8]: 2000 pM
EC50 [9]: 10.2 pM
EC50 [10]: 339 pM
IC50 [11]: 753 pM
EC50 [12]: 307 pM
IC50 [13]: 250 pM
EC50 [14]: 310 pM
EC50 [15]: 409 pM
EC50 [16]: 156 pM
EC50 [17]: 383 pM
EC50 [18]: 308 pM
EC50 [19]: 7.25 pM
binding result [20]: no binding (tested: ~67 nM)
EC50 [21]: 436 pM
B1: KWAR23 (antibody, human IgG4 S228P, kappa, V domains shown)
VH: EVQLQQSGAELVKPGASVKLSCTASGFNIKDYYIHWVQQRTEQGLEWIGRIDPEDGETKYAPKFQDKATITADTSSNTAYLHLSSLTSEDTAVYYCARWGAYWGQGTLVTVSA
VL: QIVLTQSPAIMSASPGEKVTLTCSASSSVSSSYLYWYQQKPGSSPKLWIYSTSNLASGVPARFSGSGSGTSYSLTISSMEAEDAASYFCHQWSSYPRTFGAGTKLELKR
notes: also called BM
